The text below walks through data of patent US20240161865A1, “METHODS AND PROTEINS FOR TARGETING MAIN PROTEASE OF CORONAVIRUS” (priority 2022, published 2024).

The format of this data set is physicochemical. As to conditions: 0.5 mg/mL protein, 25 mM HEPES pH 7.5, 1 mM TCEP, scan 15 to 65° C. at 60° C./hour.

For “WT Mpro: wild-type SARS-CoV-2 main protease (nsp5), recombinant from E. coli”, the “temperature associated with the DSC thermogram peak” value came out at 57.2 °C.
